Here are results for one molecule from publication PMC3869717, “The PCNA Interaction Protein Box Sequence in Rad54 Is an Integral Part of Its ATPase Domain and Is Required for Efficient DNA Repair and Recombination”.

Residue numbers refer to the chain shown, from its start.

One series has as its target T1, Rad54 (Saccharomyces cerevisiae, UniProt P32863 1-898).
T1 sequence: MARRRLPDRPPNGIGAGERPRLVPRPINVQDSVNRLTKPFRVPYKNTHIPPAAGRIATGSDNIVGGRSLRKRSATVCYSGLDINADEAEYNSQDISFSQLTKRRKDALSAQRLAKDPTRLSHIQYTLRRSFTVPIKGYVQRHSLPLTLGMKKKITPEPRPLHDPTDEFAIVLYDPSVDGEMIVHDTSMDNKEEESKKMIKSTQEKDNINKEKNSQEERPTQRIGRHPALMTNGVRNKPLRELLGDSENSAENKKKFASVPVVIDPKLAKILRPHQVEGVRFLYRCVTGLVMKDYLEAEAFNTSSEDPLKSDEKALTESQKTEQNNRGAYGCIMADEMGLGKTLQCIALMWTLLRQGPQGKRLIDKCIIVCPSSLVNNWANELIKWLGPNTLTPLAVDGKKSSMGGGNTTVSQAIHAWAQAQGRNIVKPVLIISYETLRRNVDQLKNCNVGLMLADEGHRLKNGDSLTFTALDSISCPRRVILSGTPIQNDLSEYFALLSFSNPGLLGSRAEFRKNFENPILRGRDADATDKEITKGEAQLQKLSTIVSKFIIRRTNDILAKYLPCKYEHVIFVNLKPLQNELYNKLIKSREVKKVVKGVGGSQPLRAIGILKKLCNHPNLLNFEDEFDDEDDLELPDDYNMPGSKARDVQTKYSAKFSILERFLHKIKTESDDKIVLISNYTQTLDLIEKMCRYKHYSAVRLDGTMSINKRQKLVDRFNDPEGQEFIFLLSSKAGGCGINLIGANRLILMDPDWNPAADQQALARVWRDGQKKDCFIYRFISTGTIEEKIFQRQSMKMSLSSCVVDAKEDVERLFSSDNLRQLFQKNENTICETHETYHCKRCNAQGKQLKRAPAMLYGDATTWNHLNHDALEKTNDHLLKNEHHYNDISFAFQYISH
As to the kind of experiment: EMSA (native PAGE); no ATP; Buffer D: 40 mM Tris-HCl pH 7.8, 50 mM KCl, 1 mM DTT, 100 µg/ml BSA, 30 °C, 10 min; plasmid 30 µM nucleotides with 31.25-1000 nM protein; 49-mer 3 nM with 12.5-200 nM protein. To be noted: protein: recombinant; blunt. For orientation: A gel shift assay detects complexes by their altered migration in electrophoresis.

Another series concerns the target T2, Rad54-AA (Saccharomyces cerevisiae, UniProt P32863 1-898, Y494A;F495A).
T2 sequence: T1 sequence with Y494A, F495A
As to the kind of experiment: EMSA (native PAGE); no ATP; equal to wild type; Buffer D: 40 mM Tris-HCl pH 7.8, 50 mM KCl, 1 mM DTT, 100 µg/ml BSA, 30 °C, 10 min; plasmid 30 µM nucleotides with 31.25-1000 nM protein; 49-mer 3 nM with 12.5-200 nM protein. To be noted: protein: recombinant; blunt.

B1: dsDNA 49-mer (dsDNA)
DNA 1: AGCTACCATGCCTGCACGAATTAAGCAATTCGTAATCATGGTCATAGCT
DNA 2: AGCTATGACCATGATTACGAATTGCTTAATTCGTGCAGGCATGGTAGCT
Turning to B1, the binding result in the series with Rad54 and with Rad54-AA was “binds” in each case.
